Data from article PMC4763187.

Substrate: O=C(O)C(=O)O
Assay: purified protein
Conditions: pH 8.0, 5 mM ATP, 0.5 mM CoA, 10 mM MgCl2, 2 mM DTT, oxalate up to 400 μM

B1: MtAAE3 (Medicago truncatula Acyl Activating Enzyme 3; oxalyl-CoA synthetase) (Medicago truncatula) (protein)
chain: ETATTLTGLLQSVAEKFPSRRAISVAGKFDLTHSQLHELVESAANHLISAGIKPNDVVALTFPNTIEYVIMFLAVIRVRATAAPLNAAYTSEEFEFYLSDSESKLLLTPLEGNNPAQTAATKLNIPLGSVCFNKTEEETKLSISLNQTESANSVSELINEPSDVALFLHTSGTTSRPKGVPLSQHNLVSSVRNIESVYRLSELDSTVIVLPLFHVHGLIAGLLSSLGAGGAVALPAAGRFSASTFWKDMIQYNATWYTAVPTIHQIILDRHQSNPEPVYPKLRFIRSCSASLAPVILGRLEEAFGAPVLEAYAMTEATHLMCSNPLPEDGPHKAGSVGKPVGQEMAILDESGRVLEADVNGEVCIKGENVTKGYKNNEEANKSAFLFGWFHTGDIGYFDSDGYLHLVGRIKELINRGGEKISPIEVDAVLLGHQDVAQAVAFGVPDQKYGEEIHCAIIPREGSNIDAEEVLKYCKTNLTSFKVPKKVFITDSLPKTATGKILRRLVAEHFVSQA
Km: 81.0 ± 8.1 µM
